The target in the test is FcγRIIa (CD32a His131) (UniProt P12318). In words: flow cytometry, CHO cells stably expressing CD32a His131, fluorescent anti-human IgG secondary, MFI (mean).
Sequence of FcγRIIa (CD32a His131) (P12318 34-317 limits assumed): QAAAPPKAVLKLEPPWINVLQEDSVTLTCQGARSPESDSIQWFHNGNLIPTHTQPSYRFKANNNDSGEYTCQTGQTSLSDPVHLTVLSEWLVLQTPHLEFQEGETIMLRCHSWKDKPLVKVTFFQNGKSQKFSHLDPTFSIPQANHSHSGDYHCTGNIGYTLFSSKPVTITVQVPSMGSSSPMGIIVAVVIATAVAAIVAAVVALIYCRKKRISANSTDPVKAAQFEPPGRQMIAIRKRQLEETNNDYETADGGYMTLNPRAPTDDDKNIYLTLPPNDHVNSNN

With control human IgG1 molecule (antibody), the 50% effective concentration (EC50 (read off the curve)) was found to be 9 nM.

For the origin of these results see patent US20190016816A1.
